Among the data in doi:10.1101/2020.05.13.094045 are FRET efficiency values, retold here.

In test [1] the target is AP_SAP11-like_PM19-GFP ('Candidatus Phytoplasma mali' strain PM19). Kind of test: FRET or BRET. (In general: In BRET a luciferase serves as donor, and the signal depends on an acceptor being close.)
The target of test [2] is AP_SAP11-like_PM19^Δ40-56-GFP ('Candidatus Phytoplasma mali' strain PM19). The experiment in a line: FRET or BRET.

B1: AtTCP13-RFP (natural protein)
chain: MNIVSWKDANDEVAGGATTRREREVKEDQEETEVRATSGKTVIKKQPTSISSSSSSWMKSKDPRIVRVSRAFGGKDRHSKVCTLRGLRDRRVRLSVPTAIQLYDLQERLGVDQPSKAVDWLLDAAKEEIDELPPLPISPENFSIFNHHQSFLNLGQRPGQDPTQLGFKINGCVQKSTTTSREENDREKGENDVVYTNNHHVGSYGTYHNLEHHHHHHQHLSLQADYHSHQLHSLVPFPSQILVCPMTTSPTTTTIQSLFPSSSSAGSGTMETLDPRQMVSHFQMPLMGNSSSSSSQNISTLYSLLHGSSSNNGGRDIDNRMSSVQFNRTNSTTTANMSRHLGSERCTSRGSDHHM
As for B1, the figures for the FRET efficiency in test [1] and in test [2] were 9% and 8%, respectively.

B2: AtTCP4-RFP (natural protein)
chain: MSDDQFHHPPPPSSMRHRSTSDAADGGCGEIVEVQGGHIVRSTGRKDRHSKVCTAKGPRDRRVRLSAHTAIQFYDVQDRLGFDRPSKAVDWLIKKAKTSIDELAELPPWNPADAIRLAAANAKPRRTTAKTQISPSPPPPQQQQQQQQLQFGVGFNGGGAEHPSNNESSFLPPSMDSDSIADTIKSFFPVIGSSTEAPSNHNLMHNYHHQHPPDLLSRTNSQNQDLRLSLQSFPDGPPSLLHHQHHHHTSASASEPTLFYGQSNPLGFDTSSWEQQSSEFGRIQRLVAWNSGGGGGATDTGNGGGFLFAPPTPSTTSFQPVLGQSQQLYSQRGPLQSSYSPMIRAWFDPHHHHQSISTDDLNHHHHLPPPVHQSAIPGIGFASGEFSSGFRIPARFQGQEEEQHDGLTHKPSSASSISRH
On to B2, for which, in test [1], the FRET efficiency is 11%.
